Data from patent publication US20050261189A1, “Methods of promoting cardiac cell proliferation” (Hydra Biosciences, Inc., priority 2004, published 2005).

How the values were obtained:
[1] = system: neonatal rat cardiomyocytes; assay: Neonatal rat cardiomyocyte proliferation, DNA synthesis by BrdU incorporation; format: cell-based; conditions: LiCl 10 mM, 5 mM or 2.5 mM, 48 hours; FIG. 22
Description: Neonatal rat cardiomyocytes were isolated from postnatal day 2 Wistar rat pups. Rat pups were anesthetized by hypothermia in ice water for 10 min and euthanized by decapitation. Hearts were isolated and placed in PBS-G (KCl 2 g/L; KH2PO4 2 g/L; NaCl 80 g/L; Na2HPO4.7H20 21.6 g/L; D-glucose 10 g/L) on ice. The atria were removed and ventricles were washed in PBS-G and cut into pieces smaller than 2 millimeters. PBS-G containing 119.6 units/ml collagenase type 2 and 0.2 mg/ml pancreatin was warmed to 37° C. Amounts of collagenase were adjusted for batch variations in units/mg activity. Ventricles were dissociated in collagenase/pancreatin solution for 15 minutes on a rotator at 37° C. Tissue was dispersed gently by pipetting and allowed to settle for 5 min at room temperature. Cell suspension from first dissociation was discarded and replaced with fresh collagenase/pancreatin solution, and incubated at 37° C. for 15 minutes on an orbital shaker. Tissue was again dispersed and allowed to settle. The cell supension was transferred to a new tube and incubated an additional 5 min at 37° C., and the digestion was stopped by addition of an equal volume of DMEM/20% NCS and stored on ice. Digestion of the ventricular tissue was repeated 3 additional times and supernatants were collected and stored on ice in equal volumes of DMEM/20% NCS.
Cells from all the fractions were collected at 200 RCF for 6 min at room temperature. Cell pellets were resuspended in 2 ml ADS buffer (6.8 g/L NaCl, 0.4 g/L KCl, 1.0 g/L D-glucose, 1.5 g/L NaH2PO4, 4.75 g/L HEPES, 0.1 MgSO4.7H2O). One ml of cell suspension was applied to two Percoll gradients set up in the following manner. The top Percoll gradient (density 1.059 g/ml) was generated by mixing Percoll stock with ADS buffer in a 9:11 ratio, and the bottom Percoll gradient (density 1.082 g/ml) was made by mixing Percoll stock and ADS buffer in a 13:7 ratio. Four ml Top Percoll was added to a 15 ml conical tube, and three ml Bottom Percoll was laid below it by placing a pipet tip at the bottom of the tube, then carefully withdrawing it as the solution was delivered. The gradients were centrifuged at 3000 rpm for 30 consecutive minutes at room temperature. Cardiac non-myocytes were located above the top percoll buffer while cardiac myocytes were located at the interface of the top and bottom percoll layers. Blood and undissociated tissue were found at the bottom of the tube. Cardiac myocytes were collected after the top percoll was aspirated, and resuspended in DMEM/10% FBS, then centrifuged at 200 RCF for 6 min. Pelleted myocytes were resuspended in plating medium containing DMEM with 25 mM HEPES, 5% horse serum, 4 mM glutamine, penicillin and streptomycin. Four volumes of DMEM/10% FBS were added and the cell suspension was passed through a 40 uM cell strainer. Cells were pre-plated in 10 cm tissue culture plates for 1 hour at 37° C. Unattached cells were collected from the medium and centrifuged at 200 RCF for 6 min. Pelleted myocytes were resuspended in plating medium containing 10 uM AraC at a density of 100000 cells/ml and 200 ul/well were distributed into 96 well plates which had previously been coated with 0.1% gelatin/12.5 ug/ml fibronectin at 37° C. for more than 4 hours. Plated cells were grown for at least 48 hours at 37° C. prior to use in further experiments.
Briefly, the experiments summarized in FIG. 15 and FIG. 16 were conducted as follows. Neonatal rat cardiomyocytes were prepared and cultured as outlined in example 1. […]

beta-catenin = assay: Nuclear beta-catenin assay in rat neonatal cardiomyocytes; format: cell-based; conditions: 16 hours, FIG. 23
Text: We have used a nuclear beta-catenin assay to readily identify Wnt-related polypeptides that promote Wnt signaling via the canonical Wnt signaling pathway in cardiac cells. Specifically, and by way of example, we conducted a nuclear beta-catenin assay in rat neonatal cardiomyocytes to identify Wnt-related polypeptides that promote Wnt signaling via the canonical Wnt signaling pathway in cardiomyocytes. Such an assay conducted in neonatal or adult cardiac cells including, but not limited to, cardiomyocytes can be used to identify candidate agents that are capable of promoting Wnt signaling via the canonical Wnt signaling pathway in cardiac cells.
Briefly, neonatal cardiomyocytes were prepared and plated as outlined in detail above. Cells were washed two times with serum-free medium and were incubated in medium containing either a recombinant Wnt-related polypeptide, or some control factor. Cells were incubated for 16 hours, were fixed in 4% Formaldehye for 10 minuntes at room temperature, and were permeabilized with 0.2% Triton X-100 for 5 minutes. […] Although beta-catenin is not typically detectable by immunocytochemistry in the absence of active Wnt signaling, the nuclei were counterstained with 4′,6-diamidino-2-phenylindole (DAPI) to specifically confirm that the detected beta-catenin expression was localized to the nucleus. […]
Neonatal cardiomyocytes were cultured under one of the following conditions: medium alone (negative control), 10 mM LiCl, 2% fetal calf serum (FCS), 10% fetal calf serum (FCS), 25 ng/ml recombinant mouse Wnt5A (Catalog# 645-WN/CF), 50 ng/ml recombinant mouse Wnt5A (Catalog# 645-WN/CF), 100 ng/ml recombinant mouse Wnt5A (Catalog# 645-WN/CF), 25 ng/ml recombinant mouse Wnt3A (Catalog # 1324-WN/CF), 50 ng/ml recombinant mouse Wnt3A (Catalog # 1324-WN/CF), or 100 ng/ml recombinant mouse Wnt3A (Catalog # 1324-WN/CF). Following culture under one of the foregoing conditions, cells were analyzed by immunocytochemistry for expression of beta-catenin protein, and nuclear localization was verified by counterstaining the cells with DAPI. […]

[2] = system: neonatal rat cardiomyocytes; assay: Hypertrophic response: ANF and tropomyosin immunocytochemistry in neonatal rat cardiomyocytes; conditions: Wnt3A 150 ng/ml, phenylephrine as hypertrophic stimulus
Description: Briefly, neonatal rat cardiomyocytes were treated with serum or phenylephrine (two agents known to induce hypertrophy), or were treated with 150 ng/ml recombinant Wnt3A. Following treatment, the cells were analyzed by immunocytochemistry for expression of atrial naturietic factor (ANF) (rabbit anti-ANF/Peninsula laboratories/Bachem) or expression of tropomyosin (CH1 antibody available from Developmental Hybridoma).

[3] = system: one or more non-cardiac cells types; conditions: cited from earlier work
[4] = system: Wnt3A induced cardiomyocyte proliferation; assay: Wnt antagonists co-administered with Wnt3A-L-cell supernatant, cardiomyocyte proliferation; format: cell-based, rat; conditions: 100 ng/ml of the Wnt inhibitor; FIG. 18
Description: To confirm that Wnt3A was responsible for the stimulation of cardiomyocyte proliferation observed in FIG. 17, we co-administered supernatant from Wnt3A expressing mouse L-cells and the Wnt antagonist dkk (recombinant dkk obtained from R&D Systems).
Nevertheless, the inhibition of Wnt3A induced cardiomyocyte proliferation by dkk supports the conclusion that Wnt3A is the active cardiomyocyte proliferative factor in the conditioned medium.
The experiments were conducted and analyzed as detailed above in examples 2 and 3.

[Cl-].[Li+] [LiCl, lithium chloride, reference compound]
cardiomyocyte proliferation [1]: promoted cardiomyocyte proliferation
beta-catenin nuclear localization (percentage of cells with nuclear beta-catenin staining) (beta-catenin; 10 mM LiCl, versus medium alone or 2% or 10% serum): promoted beta-catenin nuclear localization

CNC[C@H](O)c1cccc(O)c1 [phenylephrine]
ANF expression increased ([2]; FIG. 20): increased
change in cardiomyocyte cell size and shape ([2]; FIG. 21): vastly different cell shape, size, and morphology

B1: Wnt8b: Wnt polypeptide (protein, UniProt Q93098 23-351, looked up)
Protein Wnt-8b: WSVNNFLMTGPKAYLIYSSSVAAGAQSGIEECKYQFAWDRWNCPERALQLSSHGGLRSANRETAFVHAISSAGVMYTLTRNCSLGDFDNCGCDDSRNGQLGGQGWLWGGCSDNVGFGEAISKQFVDALETGQDARAAMNLHNNEAGRKAVKGTMKRTCKCHGVSGSCTTQTCWLQLPEFREVGAHLKEKYHAALKVDLLQGAGNSAAGRGAIADTFRSISTRELVHLEDSPDYCLENKTLGLLGTEGRECLRRGRALGRWERRSCRRLCGDCGLAVEERRAETVSSCNCKFHWCCAVRCEQCRRRVTKYFCSRAERPRGGAAHKPGRKP
Wnt signaling pathway shown in one or more non-cardiac cell types [3]: signal via the canonical pathway

B2: Wnt6: Wnt polypeptide (protein, UniProt Q9Y6F9 25-365, looked up)
Protein Wnt-6: LWWAVGSPLVMDPTSICRKARRLAGRQAELCQAEPEVVAELARGARLGVRECQFQFRFRRWNCSSHSKAFGRILQQDIRETAFVFAITAAGASHAVTQACSMGELLQCGCQAPRGRAPPRPSGLPGTPGPPGPAGSPEGSAAWEWGGCGDDVDFGDEKSRLFMDARHKRGRGDIRALVQLHNNEAGRLAVRSHTRTECKCHGLSGSCALRTCWQKLPPFREVGARLLERFHGASRVMGTNDGKALLPAVRTLKPPGRADLLYAADSPDFCAPNRRTGSPGTRGRACNSSAPDLSGCDLLCCGRGHRQESVQLEENCLCRFHWCCVVQCHRCRVRKELSLCL
Wnt signaling pathway shown in one or more non-cardiac cell types [3]: signal via the canonical pathway

B3: Wnt5A: recombinant mouse Wnt5A (Catalog# 645-WN/CF) (protein, UniProt P22725 62-380, looked up)
Protein Wnt-5a: IIGAQPLCSQLAGLSQGQKKLCHLYQDHMQYIGEGAKTGIKECQYQFRHRRWNCSTVDNTSVFGRVMQIGSRETAFTYAVSAAGVVNAMSRACREGELSTCGCSRAARPKDLPRDWLWGGCGDNIDYGYRFAKEFVDARERERIHAKGSYESARILMNLHNNEAGRRTVYNLADVACKCHGVSGSCSLKTCWLQLADFRKVGDALKEKYDSAAAMRLNSRGKLVQVNSRFNSPTTQDLVYIDPSPDYCVRNESTGSLGTQGRLCNKTSEGMDGCELMCCGRGYDQFKTVQTERCHCKFHWCCYVKCKKCTEIVDQFVCK
beta-catenin nuclear localization (percentage of cells with nuclear beta-catenin staining) (beta-catenin; recombinant mouse Wnt protein 25 ng/ml-100 ng/ml): did not promote beta-catenin nuclear localization
Wnt signaling pathway shown in one or more non-cardiac cell types [3]: signal via the non-canonical signaling pathway

B4: FRP2: Wnt inhibitor, secreted frizzled-related protein class (protein, UniProt Q96HF1 25-295, looked up)
Secreted frizzled-related …: LFLFGQPDFSYKRSNCKPIPANLQLCHGIEYQNMRLPNLLGHETMKEVLEQAGAWIPLVMKQCHPDTKKFLCSLFAPVCLDDLDETIQPCHSLCVQVKDRCAPVMSAFGFPWPDMLECDRFPQDNDLCIPLASSDHLLPATEEAPKVCEACKNKNDDDNDIMETLCKNDFALKIKVKEITYINRDTKIILETKSKTIYKLNGVSERDLKKSVLWLKDSLQCTCEEMNDINAPYLVMGQKQGGELVITSVKRWQKGQREFKRISRSIRKLQC
abolition of Wnt3A induced cardiomyocyte proliferation [4]: did not

B5: Wnt8a: Wnt polypeptide (protein, UniProt Q9H1J5 25-351, looked up)
Protein Wnt-8a: VNNFLITGPKAYLTYTTSVALGAQSGIEECKFQFAWERWNCPENALQLSTHNRLRSATRETSFIHAISSAGVMYIITKNCSMGDFENCGCDGSNNGKTGGHGWIWGGCSDNVEFGERISKLFVDSLEKGKDARALMNLHNNRAGRLAVRATMKRTCKCHGISGSCSIQTCWLQLAEFREMGDYLKAKYDQALKIEMDKRQLRAGNSAEGHWVPAEAFLPSAEAELIFLEESPDYCTCNSSLGIYGTEGRECLQNSHNTSRWERRSCGRLCTECGLQVEERKTEVISSCNCKFQWCCTVKCDQCRHVVSKYYCARSPGSAQSLGKGSA
Wnt signaling pathway shown in one or more non-cardiac cell types [3]: signal via the canonical pathway

B6: Wnt7a: Wnt polypeptide (protein, UniProt O00755 32-349, looked up)
Protein Wnt-7a: LGASIICNKIPGLAPRQRAICQSRPDAIIVIGEGSQMGLDECQFQFRNGRWNCSALGERTVFGKELKVGSREAAFTYAIIAAGVAHAITAACTQGNLSDCGCDKEKQGQYHRDEGWKWGGCSADIRYGIGFAKVFVDAREIKQNARTLMNLHNNEAGRKILEENMKLECKCHGVSGSCTTKTCWTTLPQFRELGYVLKDKYNEAVHVEPVRASRNKRPTFLKIKKPLSYRKPMDTDLVYIEKSPNYCEEDPVTGSVGTQGRACNKTAPQASGCDLMCCGRGYNTHQYARVWQCNCKFHWCCYVKCNTCSERTEMYTCK
Wnt signaling pathway shown in one or more non-cardiac cell types [3]: signal via the canonical pathway
